Measurements as given in PMC4601075, “Specific binding of eukaryotic ORC to DNA replication origins depends on highly conserved basic residues” (Scientific Reports, 2015).
Values belong to the molecule of their own block, whether it stands above or below them.

Legend:
ORC (ScORC, ORC hexamer) [1] = biological target: T1, ORC (ScORC, ORC hexamer) (Saccharomyces cerevisiae, UniProt P54784+P54791, P54784:K362A); assay: nitrocellulose filter binding, Scatchard plot
T1 construct: gene ORC1; with Origin recognition complex subunit 2; Origin recognition complex subunit 3; Origin recognition complex subunit 5; Origin recognition complex subunit 6
From the text: (§1) nitrocellulose filter binding, Scatchard plot on ORC (ScORC, ORC hexamer)

ORC (ScORC, ORC hexamer) [2] = biological target: T2, ORC (ScORC, ORC hexamer) (Saccharomyces cerevisiae, UniProt P54784+P54791, P54784:R367A); assay: nitrocellulose filter binding, Scatchard plot
T2 construct: gene ORC1; with Origin recognition complex subunit 2; Origin recognition complex subunit 3; Origin recognition complex subunit 5; Origin recognition complex subunit 6
From the text: as §1

ORC (ScORC, ORC hexamer) [3] = biological target: T3, ORC (ScORC, ORC hexamer) (Saccharomyces cerevisiae, UniProt P54784+P54791); assay: nitrocellulose filter binding, Scatchard plot
T3 construct: gene ORC1; with Origin recognition complex subunit 2; Origin recognition complex subunit 3; Origin recognition complex subunit 5; Origin recognition complex subunit 6
From the text: as §1

[4] = test system: GH-Orc1 301-400 (Saccharomyces cerevisiae); assay: EMSA; settings: competitor DNA; 25 mM HEPES-KOH pH 7.6, 100 mM K glutamate, 5 mM Mg acetate, 5 mM CaCl2, 5 mM DTT, 5% glycerol, 0.1% Triton X-100, 2 mg/ml BSA, 1 mM ATP; 1.6 nM dsDNA or 3 nM …; scale: fold lower affinity than ORC hexamer
[5] = biological target: ORC-1K362A hexamer K362A (Saccharomyces cerevisiae) (UniProt P54784+P32833+P54790+P54791+P50874+P38826); assay: EMSA; settings: 25 mM HEPES-KOH pH 7.6, 100 mM K glutamate, 5 mM Mg acetate, 5 mM CaCl2, 5 mM DTT, 5% glycerol, 0.1% Triton X-100, 2 mg/ml BSA, 1 mM ATP; 1.6 nM dsDNA or 3 nM …
[6] = biological target: ORC-1R367A hexamer R367A (Saccharomyces cerevisiae) (UniProt P54784+P32833+P54790+P54791+P50874+P38826); assay: EMSA; settings: 25 mM HEPES-KOH pH 7.6, 100 mM K glutamate, 5 mM Mg acetate, 5 mM CaCl2, 5 mM DTT, 5% glycerol, 0.1% Triton X-100, 2 mg/ml BSA, 1 mM ATP; 1.6 nM dsDNA or 3 nM …
[7] = biological target: ORC hexamer wild-type (Orc1-TEV-His/Orc2/3/4/5/6) (Saccharomyces cerevisiae, UniProt P54784;P32833;P54790;P54791;P50874;P38826 1-914;1-620;1-616;1-529;1-479;1-435); assay: EMSA; 1 mM ATP, competitor dsDNA; 25 mM HEPES-KOH pH 7.6, 100 mM K glutamate, 5 mM Mg acetate, 5 mM CaCl2, 5 mM DTT, 5% glycerol, 0.1% Triton X-100, 2 mg/ml BSA, 1 mM ATP; 1.6 nM dsDNA or 3 nM ssDNA, 300 ng GC-rich competitor in 5 ul, 10 min, room temperature; settings: protein: recombinant; tags: TEV-His on Orc1 (C-terminal by name); copies: 1;1;1;1;1;1; label: 3' Cy5-ddUTP (terminal transferase)
ORC-1K362A hexamer = ORC-1K362A hexamer (Saccharomyces cerevisiae, UniProt P54784;P32833;P54790;P54791;P50874;P38826 1-914;1-620;1-616;1-529;1-479;1-435, K362A); assay: as above; settings: protein: recombinant; tags: TEV-His on Orc1; copies: 1;1;1;1;1;1; label: 3' Cy5-ddUTP (terminal transferase)
ORC-1R367A hexamer = ORC-1R367A hexamer (Saccharomyces cerevisiae, UniProt P54784;P32833;P54790;P54791;P50874;P38826 1-914;1-620;1-616;1-529;1-479;1-435, R367A); assay: as above; settings: protein: recombinant; tags: TEV-His on Orc1; copies: 1;1;1;1;1;1; label: 3' Cy5-ddUTP (terminal transferase)
[8] = biological target: T4, S. cerevisiae origin recognition complex (ORC) hexamer, wild type (S. cerevisiae, UniProt P54784 1-914; P32833 1-620; P54790 1-616; P54791 1-529; P50874 1-479; P38826 …); assay: native gel or EMSA; ORC and Cdc6 incubated with Cy5-labeled ARS1 DNA (1.6 nM) and 300 ng GC-rich competitor, 10 min at room temperature, 25 mM HEPES-KOH pH 7.6, 100 mM potassium glutamate, 1 mM ATP; Cdc6-dependent supershift of the ORC-ARS1 complex on a 4% polyacrylamide gel; settings: both partners purified
T4 construct: Orc1, largest subunit of the S. cerevisiae origin recognition complex; expressed from ORC1-TEV-His; Orc2, subunit of the S. cerevisiae origin recognition complex; Orc3, subunit of the S. cerevisiae origin recognition complex; Orc4, subunit of the S. cerevisiae origin recognition complex; Orc5, subunit of the S. cerevisiae origin recognition complex; Orc6, subunit of the S. cerevisiae origin …

T2 sequence (P54784 whole entry R367A): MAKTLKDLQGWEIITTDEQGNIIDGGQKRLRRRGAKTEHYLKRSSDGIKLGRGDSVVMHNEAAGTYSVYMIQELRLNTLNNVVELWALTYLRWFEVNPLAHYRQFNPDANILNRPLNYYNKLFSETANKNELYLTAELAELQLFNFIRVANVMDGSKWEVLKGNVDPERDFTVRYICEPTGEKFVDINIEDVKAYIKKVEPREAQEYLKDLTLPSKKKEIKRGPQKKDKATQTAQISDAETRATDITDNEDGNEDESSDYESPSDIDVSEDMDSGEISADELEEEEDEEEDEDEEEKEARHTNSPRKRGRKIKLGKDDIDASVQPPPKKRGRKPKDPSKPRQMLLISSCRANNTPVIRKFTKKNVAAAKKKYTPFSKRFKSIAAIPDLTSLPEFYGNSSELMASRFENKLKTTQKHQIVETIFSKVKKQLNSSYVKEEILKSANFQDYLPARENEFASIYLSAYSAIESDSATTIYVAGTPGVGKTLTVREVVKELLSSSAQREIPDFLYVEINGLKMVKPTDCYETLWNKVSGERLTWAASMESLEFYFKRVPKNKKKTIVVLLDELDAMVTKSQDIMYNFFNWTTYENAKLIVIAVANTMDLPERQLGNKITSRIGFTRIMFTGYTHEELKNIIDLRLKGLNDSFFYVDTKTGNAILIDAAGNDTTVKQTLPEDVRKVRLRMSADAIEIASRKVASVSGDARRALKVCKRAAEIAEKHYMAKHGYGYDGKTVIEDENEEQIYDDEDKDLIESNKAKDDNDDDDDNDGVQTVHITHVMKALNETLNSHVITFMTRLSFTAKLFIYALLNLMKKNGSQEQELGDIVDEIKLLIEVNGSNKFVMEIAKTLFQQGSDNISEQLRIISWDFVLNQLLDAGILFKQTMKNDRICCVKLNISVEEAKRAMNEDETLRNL
T2 sequence (P54791 whole entry): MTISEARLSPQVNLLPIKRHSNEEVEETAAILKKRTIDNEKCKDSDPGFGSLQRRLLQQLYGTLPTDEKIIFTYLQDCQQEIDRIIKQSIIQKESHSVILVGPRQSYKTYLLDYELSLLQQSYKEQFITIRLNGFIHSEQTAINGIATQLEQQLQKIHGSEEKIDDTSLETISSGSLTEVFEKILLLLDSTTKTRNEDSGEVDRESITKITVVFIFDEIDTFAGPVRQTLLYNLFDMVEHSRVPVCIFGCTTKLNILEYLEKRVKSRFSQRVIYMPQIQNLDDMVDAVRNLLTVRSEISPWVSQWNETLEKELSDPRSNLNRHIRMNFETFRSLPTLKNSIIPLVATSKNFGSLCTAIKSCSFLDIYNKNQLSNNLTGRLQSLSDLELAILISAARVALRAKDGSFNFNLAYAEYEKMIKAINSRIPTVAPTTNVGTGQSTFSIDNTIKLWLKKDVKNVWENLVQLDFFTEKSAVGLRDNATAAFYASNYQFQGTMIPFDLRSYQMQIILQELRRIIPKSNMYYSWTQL
T2 sequence (P32833 whole entry partner): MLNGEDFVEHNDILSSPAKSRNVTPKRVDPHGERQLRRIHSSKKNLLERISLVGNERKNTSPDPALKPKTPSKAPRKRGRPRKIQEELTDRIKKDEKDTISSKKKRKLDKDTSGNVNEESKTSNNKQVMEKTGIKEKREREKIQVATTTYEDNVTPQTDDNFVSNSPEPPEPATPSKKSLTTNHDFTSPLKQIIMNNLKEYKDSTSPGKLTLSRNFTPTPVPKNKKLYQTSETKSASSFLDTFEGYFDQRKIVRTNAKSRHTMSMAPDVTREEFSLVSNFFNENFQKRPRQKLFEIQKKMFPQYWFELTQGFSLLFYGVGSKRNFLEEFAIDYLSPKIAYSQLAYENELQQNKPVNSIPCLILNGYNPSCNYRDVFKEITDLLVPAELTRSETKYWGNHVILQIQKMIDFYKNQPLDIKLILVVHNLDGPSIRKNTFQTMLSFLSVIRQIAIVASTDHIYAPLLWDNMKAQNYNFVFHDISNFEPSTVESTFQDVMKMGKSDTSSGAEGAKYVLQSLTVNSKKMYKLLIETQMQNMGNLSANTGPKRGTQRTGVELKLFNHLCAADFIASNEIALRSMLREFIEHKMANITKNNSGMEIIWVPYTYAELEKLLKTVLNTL
T2 sequence (P54790 2-616 partner): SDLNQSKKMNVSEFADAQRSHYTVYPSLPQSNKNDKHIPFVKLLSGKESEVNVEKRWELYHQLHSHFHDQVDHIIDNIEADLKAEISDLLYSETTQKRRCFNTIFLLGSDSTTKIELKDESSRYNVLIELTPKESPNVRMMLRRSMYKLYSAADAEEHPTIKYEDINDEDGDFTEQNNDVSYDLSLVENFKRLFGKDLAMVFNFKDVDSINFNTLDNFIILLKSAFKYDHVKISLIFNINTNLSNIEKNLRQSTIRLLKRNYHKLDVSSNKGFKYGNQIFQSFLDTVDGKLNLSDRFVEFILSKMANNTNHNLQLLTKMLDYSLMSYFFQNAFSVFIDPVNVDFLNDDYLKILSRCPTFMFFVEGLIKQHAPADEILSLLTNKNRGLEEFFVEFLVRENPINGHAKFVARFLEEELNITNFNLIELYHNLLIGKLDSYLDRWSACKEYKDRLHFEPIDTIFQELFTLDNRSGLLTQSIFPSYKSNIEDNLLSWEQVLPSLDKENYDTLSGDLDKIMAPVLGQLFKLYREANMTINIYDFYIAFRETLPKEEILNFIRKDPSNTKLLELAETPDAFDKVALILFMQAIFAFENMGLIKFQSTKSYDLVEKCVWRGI
T2 sequence (P50874 whole entry partner): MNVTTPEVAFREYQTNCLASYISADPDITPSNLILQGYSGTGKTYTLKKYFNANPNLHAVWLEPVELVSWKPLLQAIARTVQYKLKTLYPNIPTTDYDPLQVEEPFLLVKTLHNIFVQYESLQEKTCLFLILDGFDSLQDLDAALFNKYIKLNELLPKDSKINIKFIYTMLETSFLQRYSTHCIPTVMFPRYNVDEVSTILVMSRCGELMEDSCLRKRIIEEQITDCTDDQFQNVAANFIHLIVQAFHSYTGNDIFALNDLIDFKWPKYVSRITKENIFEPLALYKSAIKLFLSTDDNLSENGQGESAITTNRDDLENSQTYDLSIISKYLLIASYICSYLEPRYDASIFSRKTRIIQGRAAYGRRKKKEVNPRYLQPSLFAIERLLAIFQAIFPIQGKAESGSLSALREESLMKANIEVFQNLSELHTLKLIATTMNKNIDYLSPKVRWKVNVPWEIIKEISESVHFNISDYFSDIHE
T2 sequence (P38826 whole entry partner): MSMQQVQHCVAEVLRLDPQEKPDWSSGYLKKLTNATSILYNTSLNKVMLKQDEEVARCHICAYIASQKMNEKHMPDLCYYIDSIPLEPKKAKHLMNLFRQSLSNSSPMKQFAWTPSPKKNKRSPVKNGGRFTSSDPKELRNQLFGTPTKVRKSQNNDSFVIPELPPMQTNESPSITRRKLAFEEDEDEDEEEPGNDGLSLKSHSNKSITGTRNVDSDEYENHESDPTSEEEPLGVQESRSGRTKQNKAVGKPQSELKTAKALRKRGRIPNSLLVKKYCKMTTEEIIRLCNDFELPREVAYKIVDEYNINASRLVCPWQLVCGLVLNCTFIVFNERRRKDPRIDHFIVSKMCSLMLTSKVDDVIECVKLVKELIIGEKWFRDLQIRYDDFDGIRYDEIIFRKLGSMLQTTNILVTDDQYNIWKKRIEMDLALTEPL
T3 sequence (P54784 whole entry): as the sequence (P54784 whole entry R367A) above, with A367R counted along it
T3 sequence (P54791 whole entry): as the sequence (P54791 whole entry) above
T3 sequence (P32833 whole entry partner): as the sequence (P32833 whole entry partner) above
T3 sequence (P54790 2-616 partner): as the sequence (P54790 2-616 partner) above
T3 sequence (P50874 whole entry partner): as the sequence (P50874 whole entry partner) above
T3 sequence (P38826 whole entry partner): as the sequence (P38826 whole entry partner) above
T1 sequence (P54784 whole entry K362A): as the sequence (P54784 whole entry R367A) above, with K362A, A367R counted along it
T1 sequence (P54791 whole entry): as the sequence (P54791 whole entry) above
T1 sequence (P32833 whole entry partner): as the sequence (P32833 whole entry partner) above
T1 sequence (P54790 2-616 partner): as the sequence (P54790 2-616 partner) above
T1 sequence (P50874 whole entry partner): as the sequence (P50874 whole entry partner) above
T1 sequence (P38826 whole entry partner): as the sequence (P38826 whole entry partner) above

Kd (ORC (ScORC, ORC hexamer) [1]): 35 nM
Kd (ORC (ScORC, ORC hexamer) [2]): 32 nM
Kd (ORC (ScORC, ORC hexamer) [3]): 31 nM
Molecule: Nc1ncnc2c1ncn2[C@@H]1O[C@H](COP(=O)(O)OP(=O)(O)OP(=O)(O)O)[C@@H](O)[C@H]1O [ATP]

Molecule: ARS1 wild-type fragment
binding signal [4]: > 100

Molecule: CCCACATGTCAATTTAGTATATTACTGTATATCTAGTTCATTCTTCAAAATAAAGAATGCATAACCATTTTTTTATGTTTTTTCCGGAATTGGCTAAATTCACAAAAAAAAAGAGCATAAAGCGAATTGAATTGTCTCGCCAAGAAAACGCACTGAGAGGACGATTGATCCTCCAGACAAGATCGGAATTTTTACTTTTCTGTTTTTAACGACGTCGG (double strand) [ARS609 fragment]
binding [5]: binds more weakly
binding [6]: binds more weakly

Molecule: CCGACGTCAGATCTTAATTTATCTCATGAAGTAATGATACCTCAGCGATGTGCTCGCTCGTTAGTATGCTTCATAAATTCATTATTATTTTTTTTTGGAAGTGTTTTTCGACAAAAGTTGCATTTTTACGAAGGATATGTAAACTCAAGAAGTACTAAATAAATATAAATACAATTCGAAAATTTGAAAAAAGTAGGAGACAACACTTTCCTTCCTCACGAAGAAGTTAAGCTTACATGTGGG (double strand) [ARS306 fragment]
binding [5]: binds more weakly
binding [6]: binds more weakly

Molecule: GTTACCATGGCATCGAGTTCTTCAACAAGACTACAATGG (ssDNA) [DL11]
binding result [7]: binds
binding result (ORC-1K362A hexamer): binds
binding result (ORC-1R367A hexamer): binds

binding result [8]: binds
B1: ScCdc6 (natural protein, S. cerevisiae, UniProt P09119 1-513, looked up)
chain: MSAIPITPTKRIRRNLFDDAPATPPRPLKRKKLQFTDVTPESSPEKLQFGSQSIFLRTKALLQKSSELVNLNSSDGALPARTAEYEQVMNFLAKAISEHRSDSLYITGPPGTGKTAQLDMIIRQKFQSLPLSLSTPRSKDVLRHTNPNLQNLSWFELPDGRLESVAVTSINCISLGEPSSIFQKIFDSFQDLNGPTLQIKNMQHLQKFLEPYHKKTTFVVVLDEMDRLLHANTSETQSVRTILELFLLAKLPTVSFVLIGMANSLDMKDRFLSRLNLDRGLLPQTIVFQPYTAEQMYEIVIQKMSSLPTIIFQPMAIKFAAKKCAGNTGDLRKLFDVLRGSIEIYELEKRFLLSPTRGSLNSAQVPLTPTTSPVKKSYPEPQGKIGLNYIAKVFSKFVNNNSTRTRIAKLNIQQKLILCTIIQSLKLNSDATIDESFDHYIKAITKTDTLAPLQRNEFLEICTILETCGLVSIKKTKCKGKTKRFVDKIDVDLDMREFYDEMTKISILKPFLH
notes: Cdc6 of S. cerevisiae; source: E. coli, overexpressed and purified
